The source of these data is patent US20240173352A1 (published 2024).

Holding throughout (experiment): activation reporter or marker
Assay [1] concerns the target T1, mH-Y (MiHA-Y) peptide on H-2Db (mouse).
T1 peptide: KCSRNRQYL

In assay [2] the target is T2, HA-1(R), allelic variant of HA-1; Rho GTPase activating protein 45 (HMHA1) peptide on HLA-A*02:01 (human).
T2 peptide: VLRDDLLEA

The target of assay [3] is T3, HA-1(H), minor histocompatibility antigen HA-1 variant H; Rho GTPase activating protein 45 (HMHA1) peptide on … (human).
T3 peptide: VLHDDLLEA

B1: H-Y TCRalpha P2A TCRbeta Jb2.3L (TCR, V domains shown)
Valpha: AQSVDQPDAHVTLSEGASLELRCSYSYSAAPYLFWYVQYPGQSLQFLLKYITGDTVVKGTKGFEAEFRKSNSSFNLKKSPAHWSDSAKYFCALEGQDQGGSAKLIFGEGTKLTVSS
Vbeta: EAAVTQSPRNKVAVTGGKVTLSCNQTNNHNNMYWYRQDTGHGLRLIHYSYGAGSTEKGDIPDGYKASRPSQENFSLILELATPSQTSVYFCASGDNSAETLYFGPGTRLLVL
For B1, the binding result in assay [1] is “recognises”.

B2: KP7 HA-1H TCR (TCR, V domains shown)
Valpha: KNEVEQSPQNLTAQEGEFITINCSYSVGISALHWLQQHPGGGIVSLFMLSSGKKKHGRLIATINIQEKHSSLHITASHPRDSAVYICAVRSVSGAGSYQLTFGKGTKLSVIP
Vbeta: DTGVSQNPRHKITKRGQNVTFRCDPISEHNRLYWYRQTLGQGPEFLTYFQNEAQLEKSRLLSDRFSAERPKGSFSTLEIQRTEQGDSAMYLCASSIDSFNEQFFGPGTRLTVL
On to B2, for which the binding result is given as “no recognition” in assay [2] and “recognises” in assay [3].
